Results published in patent publication US20250042994A1 (HAINAN SIMCERE ZAIMING PHARMACEUTICAL, published 2025).
One block for each binder: values may come before it.

Key:
human CD19 on Raji cells = biological target: T1, human CD19 on Raji cells (human, UniProt P15391 20-556); assay: FACS on Raji cells
T1 construct: whole, on cells
T1 sequence (looked up): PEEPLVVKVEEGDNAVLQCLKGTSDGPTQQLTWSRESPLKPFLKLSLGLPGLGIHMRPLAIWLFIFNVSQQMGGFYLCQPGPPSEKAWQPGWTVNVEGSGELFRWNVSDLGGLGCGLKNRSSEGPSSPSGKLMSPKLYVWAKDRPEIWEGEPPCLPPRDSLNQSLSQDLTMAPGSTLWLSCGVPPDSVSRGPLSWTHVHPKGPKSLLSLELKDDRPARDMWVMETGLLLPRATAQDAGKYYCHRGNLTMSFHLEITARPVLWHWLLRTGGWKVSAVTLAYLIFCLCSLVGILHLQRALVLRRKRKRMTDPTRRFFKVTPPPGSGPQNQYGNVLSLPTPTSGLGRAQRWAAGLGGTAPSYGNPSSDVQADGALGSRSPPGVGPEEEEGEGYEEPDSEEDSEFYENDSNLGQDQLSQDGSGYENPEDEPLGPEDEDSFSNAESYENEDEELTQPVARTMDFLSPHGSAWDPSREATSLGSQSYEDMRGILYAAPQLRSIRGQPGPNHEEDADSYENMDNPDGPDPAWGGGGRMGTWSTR

[1] = biological target: T2, human CD19 on CHO-K1-human CD19 cells (human, UniProt P15391 20-556); assay: FACS on CHO-K1-human CD19 cells
T2 construct: whole, on cells; also called CHO-K1-human CD19-2C8
T2 sequence (looked up): T1 sequence (looked up)

[2] = biological target: T3, monkey CD19 on HEK293T-monkey CD19 cells (monkey); assay: FACS on HEK293T-monkey CD19 cells
T3 construct: whole, on cells
Outline: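 Cells blocked in PBS + 2% (w/w) BSA at 2×10⁶ cells/ml, then incubated with test antibody on ice for 2 h. After washes, binding read by flow cytometry as mean fluorescence intensity (MFI). EC50 from fitted MFI curves. Parental HEK293T cells run by the same method.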

[3] = biological target: T4, cynomolgus monkey CD19 on peripheral blood B cells (cynomolgus monkey (Macaca fascicularis), UniProt A0A2K5W8L9 20-557); assay: FACS, cynomolgus PBMC, CD20+ B cells
T4 construct: whole, on cells; also called cynomolgus monkey B cells
T4 sequence: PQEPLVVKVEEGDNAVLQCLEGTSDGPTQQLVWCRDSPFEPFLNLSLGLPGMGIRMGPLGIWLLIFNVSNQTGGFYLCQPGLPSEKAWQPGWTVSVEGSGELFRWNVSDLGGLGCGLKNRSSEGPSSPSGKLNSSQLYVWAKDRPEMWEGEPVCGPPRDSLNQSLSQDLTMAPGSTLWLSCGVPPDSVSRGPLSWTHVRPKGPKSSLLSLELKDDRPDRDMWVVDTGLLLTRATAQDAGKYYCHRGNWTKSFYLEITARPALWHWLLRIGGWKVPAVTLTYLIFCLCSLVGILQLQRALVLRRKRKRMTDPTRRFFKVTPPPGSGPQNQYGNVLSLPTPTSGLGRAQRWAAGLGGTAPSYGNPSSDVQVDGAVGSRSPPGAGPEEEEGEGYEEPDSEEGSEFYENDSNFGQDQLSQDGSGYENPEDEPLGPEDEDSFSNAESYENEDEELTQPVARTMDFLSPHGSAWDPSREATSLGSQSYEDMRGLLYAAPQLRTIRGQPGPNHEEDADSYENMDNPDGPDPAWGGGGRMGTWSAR

murine CD19 protein = biological target: T5, murine CD19 protein (murine, UniProt P25918 17-287, limits assumed); assay: ELISA, coated murine CD19
T5 construct: bought protein; also called commercial murine CD19
T5 sequence (looked up): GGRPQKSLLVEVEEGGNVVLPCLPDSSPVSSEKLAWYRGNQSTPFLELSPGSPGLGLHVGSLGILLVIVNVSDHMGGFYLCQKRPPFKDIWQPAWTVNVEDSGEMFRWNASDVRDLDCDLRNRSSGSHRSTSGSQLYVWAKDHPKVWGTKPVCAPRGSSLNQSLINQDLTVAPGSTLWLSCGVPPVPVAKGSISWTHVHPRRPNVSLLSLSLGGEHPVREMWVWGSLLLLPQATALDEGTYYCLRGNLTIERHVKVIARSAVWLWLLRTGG
Procedure: (§1) Human CD19-his protein (purchased from ACROBiosystems, catalog number: CD9-H52H2) was diluted with PBS to a final concentration of 4 μg/mL, and then added to a 96-well ELISA plate at 100 μl/well. The plate was sealed with a plastic film and incubated overnight at 4° C., the plate was washed 2 times with PBS the next day, and then a blocking solution [PBS+2% (w/w) BSA] was added for blocking at room temperature for 2 h. The blocking solution was poured off, and 100 nM gradiently diluted CD19 chimeric antibody or control antibody was added at 50 μl/well. After incubation at 37° C. for 2 h, the plate was washed 3 times with PBS. […] TMB substrate was added at 50 μl/well, and incubated at room temperature for 10 min, and then a stop solution (1.0 N HCl) was added at 50 μl/well. The OD450 nm values were read by an ELISA microplate reader (Multimode Plate Reader, EnSight, purchased from Perkin Elmer).
In order to detect the species cross-binding activity of the chimeric antibodies, an ELISA plate was coated with commercial murine CD19 (ACROBiosystems, catalog number: 50510-M08H) and monkey CD19 (ACROBiosystems, catalog number: 90051-C08H), respectively, and the ELISA detection was performed according to the method in example 5.1.

Human CD19-his protein [4] = biological target: T6, Human CD19-his protein (human, UniProt P15391 20-291); assay: ELISA, antibody at 10 nM
T6 construct: bought protein; also called human CD19 protein; recombinant human CD19-His; not shown: His tag
T6 sequence (looked up): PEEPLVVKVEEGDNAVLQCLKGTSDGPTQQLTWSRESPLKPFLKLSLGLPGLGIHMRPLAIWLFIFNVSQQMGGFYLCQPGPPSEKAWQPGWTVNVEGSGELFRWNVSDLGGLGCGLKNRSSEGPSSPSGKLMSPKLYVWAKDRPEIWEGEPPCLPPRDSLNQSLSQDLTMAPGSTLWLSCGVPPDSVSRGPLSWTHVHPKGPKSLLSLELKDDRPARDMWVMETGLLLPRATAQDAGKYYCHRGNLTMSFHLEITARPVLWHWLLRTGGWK
Procedure: as §1

Human CD19-his protein [5] = biological target: T6, Human CD19-his protein; assay: ELISA, antibody at 100 nM
Procedure: as §1

Human CD19-his protein [6] = biological target: T6, Human CD19-his protein; assay: ELISA, antibody at 0.01 nM
Procedure: as §1

Human CD19-his protein [7] = biological target: T6, Human CD19-his protein; assay: ELISA, antibody at 0.10 nM
Procedure: as §1

Human CD19-his protein [8] = biological target: T6, Human CD19-his protein; assay: ELISA, antibody at 1.00 nM
Procedure: as §1

Human CD19-his protein [9] = biological target: T6, Human CD19-his protein; assay: ELISA, antibody at 0.001 nM
Procedure: as §1

Human CD19-his protein [10] = biological target: T6, Human CD19-his protein; assay: ELISA, antibody at 0.0001 nM
Procedure: as §1

B2: F5.11.2 (antibody, human IgG1, V domains shown)
VH: EVQLVESGGDLVKPGGSLKLSCAASGFTFSSYGMSWVRQTPDKRLEWVATISHGGSYTHYPDSVKGRFTISRDNAKNTLYLQMNSLKSEDTAMYYCVRLPITTVEAPYFFDYWGQGTTLTVSS
VL: DIQMTQTTSSLSASLGDRVTISCRASQDIRNYLNWYQQKPDGTVKLLIYYTSILHSGVPSRFSGSGSGTDYSLTINNLEQEDVATYFCQQGNTLYTFGGGTEVELR
notes: human-murine chimeric antibody, human IgG1
binding result (murine CD19 protein): no binding
OD450 (Human CD19-his protein [4]): 2.68
OD450 (Human CD19-his protein [5]): 3.01
OD450 (Human CD19-his protein [6]): 0.14
OD450 (Human CD19-his protein [7]): 0.56
OD450 (Human CD19-his protein [8]): 1.82
OD450 (Human CD19-his protein [9]): 0.07
OD450 (Human CD19-his protein [10]): 0.06

B4: F4.78.1 (antibody, human IgG1, V domains shown)
VH: QVQIQQSGAELARPGASVKLSCKASGYTFTNYWMQWIKQRPGQGLEWIGAIYPGDGDTRYTQKFKGKATLTADKSSSTAYMQLSSLASEDSAVYYCAREEVWSPYGMDYWGQGTSVTVSS
VL: QIVLTQSPAIMSASPGEKVTITCSASSSVSYMGWFQQKPGTSPKLWIYSTSNLASGVPARFSGSGSGTSYSLTISRMEAEDAATYYCQQRSIYPLTFGAGTKLELK
notes: as for B2
EC50 (human CD19 on Raji cells): 1.52 nM
Maximum mean fluorescence intensity (human CD19 on Raji cells): 36900
EC50 [1]: 0.51 nM
Maximum mean fluorescence intensity [1]: 44300
EC50 [2]: 0.73 nM
Maximum mean fluorescence intensity [2]: 57000
Proportion of chimeric antibody positive cells to B cells (%) at 1 nM [3]: 21%
Proportion of chimeric antibody positive cells to B cells (%) at 10 nM [3]: 29%
Proportion of chimeric antibody positive cells to B cells (%) at 100 nM [3]: 74%

B5: F4.191.1 (antibody, human IgG1, V domains shown)
VH: QVQLQQPGAELVRPGASVKLSCKASGYTFTSYWINWVKQRPGQGLEWIGNIHPSDSYTNYNQKFKDKATLTVDKSSSTAYMQFSSPTSEDSAVYYCTREDYYYGSNYDAMDYWGQGTSVTVSS
VL: DIVMTQSHKFMSTSVGDRVNITCKASQDVGSSVAWYQQKPGQSPKLLIYWASTRHAGVPDRFTGSGSGADFTLTISNVQSEDLADYFCQQYSTYPLTFGAGTKLELK
notes: as for B2
EC50 (human CD19 on Raji cells): 1.89 nM
Maximum mean fluorescence intensity (human CD19 on Raji cells): 32300
EC50 [1]: 0.34 nM
Maximum mean fluorescence intensity [1]: 26500
EC50 [2]: 1.14 nM
Maximum mean fluorescence intensity [2]: 59600
Proportion of chimeric antibody positive cells to B cells (%) at 1 nM [3]: 3%
Proportion of chimeric antibody positive cells to B cells (%) at 10 nM [3]: 15%
Proportion of chimeric antibody positive cells to B cells (%) at 100 nM [3]: 50%

Continued by falling EC50 (human CD19 on Raji cells), values first:

EC50 (human CD19 on Raji cells): 0.85 nM
Maximum mean fluorescence intensity (human CD19 on Raji cells): 16600
EC50 [1]: 0.32 nM
Maximum mean fluorescence intensity [1]: 26000
EC50 [2]: 1.18 nM
Maximum mean fluorescence intensity [2]: 66600
Proportion of chimeric antibody positive cells to B cells (%) at 1 nM [3]: 97%
Proportion of chimeric antibody positive cells to B cells (%) at 10 nM [3]: 98%
Proportion of chimeric antibody positive cells to B cells (%) at 100 nM [3]: 99%
B1: F4.82.11 (antibody, human IgG1, V domains shown)
VH: QVTLKESGPGILQASQTLSLTCSFSGFSLSTFGIGVGWVRQPSGKGLEWLAHIWWNDNKFFNTTLKNRLTLSKDPSNNQVFLKIASVDTADTATYYCARSRSALITTGLYAMDYWGQGTSVTVSS
VL: DIQMTQTPSSLSASLGDRVTISCRSSQDISNYVNWYQQKPDGTVKVLINYTSRLHSGVPSRFSGSGSGTDYSLTISNLEQEDIASYFCQQGFTLPYTFGGGTKLEIK
notes: as for B2

EC50 (human CD19 on Raji cells): 0.76 nM
Maximum mean fluorescence intensity (human CD19 on Raji cells): 26000
EC50 [1]: 0.78 nM
Maximum mean fluorescence intensity [1]: 58900
Maximum mean fluorescence intensity [2]: 58
Proportion of chimeric antibody positive cells to B cells (%) at 1 nM [3]: 2%
Proportion of chimeric antibody positive cells to B cells (%) at 10 nM [3]: 2%
Proportion of chimeric antibody positive cells to B cells (%) at 100 nM [3]: 3%
B6: F4.152.7 (antibody, human IgG1, V domains shown)
VH: QVQLQQPGAELVKPGASVKLSCKASGYTFTSYWMHWVKQRPGQGLEWIGEIDPSDSYTNYNQKFKGKATLTADKSSSTAYMQLSGLTSEDSAVYHCARGGDYDGYYVMDYWGQGTSVTVSS
VL: EIVLTQSPTTMAASPGEKITITCSASSSISSNYLHWYQQKPGFSPKLLIYRTSNLASGVPARFSGSGSGTSYSLTIGTMEADDVATYYCQQGSYIPRIFTFGSGTKLEIK
notes: as for B2

EC50 (human CD19 on Raji cells): 0.74 nM
Maximum mean fluorescence intensity (human CD19 on Raji cells): 25700
EC50 [1]: 1.16 nM
Maximum mean fluorescence intensity [1]: 52000
Maximum mean fluorescence intensity [2]: 73
Proportion of chimeric antibody positive cells to B cells (%) at 1 nM [3]: 1%
Proportion of chimeric antibody positive cells to B cells (%) at 10 nM [3]: 2%
Proportion of chimeric antibody positive cells to B cells (%) at 100 nM [3]: 1%
B3: F4.96.6 (antibody, human IgG1, V domains shown)
VH: EIQLQQSGPELVKPGASVKVSCKASGYAFSAYNIYWVKQSHGKSLEWIGYIDPYNSGTTYNQKFRGKATLTVDKSSNTAYMHLSSLTSEDSAVYYCTRDGDAMDYWGQGTSVTVSS
VL: EILLTQSPAIIAASPGEKVTITCSASSGVIYMNWYQQKPGSSPKIWIYDVSTLASGVPARFSGSGSGTSFSFTINSMEAEDVATYYCQQRSSYPYTFGGGTKLEIK
notes: as for B2

EC50 (human CD19 on Raji cells): 0.6 nM
Maximum mean fluorescence intensity (human CD19 on Raji cells): 26700
EC50 [1]: 0.77 nM
Maximum mean fluorescence intensity [1]: 59900
EC50 [2]: 1.24 nM
Maximum mean fluorescence intensity [2]: 69500
Proportion of chimeric antibody positive cells to B cells (%) at 1 nM [3]: 20%
Proportion of chimeric antibody positive cells to B cells (%) at 10 nM [3]: 35%
Proportion of chimeric antibody positive cells to B cells (%) at 100 nM [3]: 67%
B7: F4.107.12 (antibody, human IgG1, V domains shown)
VH: EVQLQQSGPELVKPGASVKMSCKASGYTFTSYVLHWVRQKPGQGLEWIGYFNPYNDGTEYNEKFKGKAILTSDKSSSTAYMELNSLTSEDSAVYYCVGGTYYYGSSYPFAYWGQGTLVTVST
VL: DVVMTQISLSLPVSLGDQASISCRSSQSLIHSNGNTYLQWYLQKPGQSPKLLIYKVSNRLSGVPDRFSGSGSGTDFTLKISRVEAEDLGVYFCSQSTHVPYTFGGGTKLEIK
notes: as for B2
